# According to the nanobody polyreactivity screen of Harvey et al. (2022):
# Experiment: yeast display, Sf9 membrane polyspecificity reagent, FACS + sequencing; frameworks hold sequencing errors
# Procedure, shortened: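 Galactose induction of a Saccharomyces cerevisiae BJ5465 synthetic nanobody display library ran 36–48 hours. The cells were then stained for 1 hour at 4 °C with 10% biotinylated, detergent-solubilized Sf9 membrane reagent, pulled down on streptavidin microbeads and FACS-sorted into low and high (top ~1%) gates on expression and reagent-binding fluorescence. Labels for polyreactivity follow the gate of origin.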
row,Sequence,polyreactivity (PSR sort gate)
1,QVQLVESGGGLVQAGGSLRLSCAASGSTFIDYAMGWYRQAPGKEREFVAGISSGDSTDYADSVKGRFTISRDNAKNTVYLQMNSLKPEDTAVYYCNADWNPTERWFYWYTPLGYDYWGQGTQVTVSS,low polyreactivity
2,QVQLVESGGGLVQAGGSLRLSCAASGSTFIDYAMGWYRQAPGKERELVAAITNGGNTKYADSVKGRFTISRDNAKNTVYLQMNSLKPEDTAVYYCAREPSIFTPSYDYWGQGTQVNVSS,low polyreactivity
3,QVQLVESGGGLVQAGGSLRLSCAASGSTFIDYGMGWYRQAPGKERELVAAIDLDSGDTYYADSVKGRFTISRDNAKNTVYLQMNSLKPEDTAVYYCAAQYWYRYNYWGQGTQVTVSS,low polyreactivity
4,QVQLVESGGGLVQAGGSLRLSCAASGSTFIGHAMGWYRQAPGIERELVATITSGDSTYADSVKGRFTISRDNAKNTVYLQMNSLKPEDTAVYYCNADPWDIGSSFELDYWGQGTQLTVSS,low polyreactivity
5,QVQLVESGGGLVQAGGSLRLSCAASGSTFIINAMGWYRQAPGKERELVAAITIGDITNYADSVKGRFTISRDNAKNTVYLQMNSLKPEDTAVYYCNKDALLFWHRDYVLDTYEYWGQGTQVTVSS,low polyreactivity
6,QVQLVESGGGLVQAGGSLRLSCAASGSTFILYAMGWYRQAPGKERELVAAITTSGGSTYYADSVKGRFTISRDNAKNTVYLQMKSLKPEDTAVYYCNGGLSVTHGTSIPFRNYEYWGQGTQVTVSS,low polyreactivity
7,QVQLVESGGGLVQAGGSLRLSCAASGSTFINYAMGWYREAPGKERELVAAISKGGGSTYYADSVKGRFTISRDTAKNTVYLQINSLKPEDTAVYDCARARSGGSHREYYWGQGTQVTVSS,high polyreactivity
8,QVQLVESGGGLVQAGGSLRLSCAASGSTFINYAMGWYRQAPGKERELVAAYADSVKGRFTISRDNAKNTVYLQMNRLKPEDTAVYDCNAVTGECGQGTQVTVSS,low polyreactivity
9,QVQLVESGGGLVQAGGSLRLSCAASGSTFIRNAMGWYRQAPGKERELVAAISSSGGRTYYADSVKGRFTISRDNAKNTVYLQMNSLKPEDTAVYYCAARAVGAYYSSYSHGAGYYYWGQGTQLTVSS,high polyreactivity
10,QVQLVESGGGLVQAGGSLRLSCAASGSTFIRYTMGWYRQAPGKERELVAAISTGGTNYADSVKGRFTISRDNAKNTVYLQMYSLKPGDTAVYYCAKPSSPSLGGVSDRIYWGQGTQVTVSS,low polyreactivity
11,QVQLVESGGGLVQAGGSLRLSCAASGSTFISNAMGWYRQAPGKERELVASITWTDVSTYYADSVKGRFTISRDNAKNTVYLQMNSLKPEDTAVYYCAAVTGLSSNDGYDYWGQGTQVTVSS,low polyreactivity
12,QVQLVESGGGLVQAGGSLRLSCAASGSTFITNIMGWYRQAPGKERELVAAISYIDGTTYYADSVKGRFTISRDYAKNTVYLQMNSLKADDTAVYYCAAVVSKSSFDYWGQGTQVTVSS,low polyreactivity
13,QVQLVESGGGLVQAGGSLRLSCAASGSTFITYAMGWYRQAPGKERELVAAISWSGVGTYYADSVKGRFTISRDNAKNTVYLQMNSLKPEDTAVYYCAVDRIYYYTYGVYYWGQGTQVTVSS,high polyreactivity
14,QVQLVESGGGLVQAGGSLRLSCAASGSTFIVNAMGWYRQAPGKERELVAAISRSGSDTYYADSVKGRFTISRDNAKNTVYLQMNSLKPEDTAVYYCAARWSYRSLARYNYWGQGTQVTVSS,low polyreactivity
15,QVQLVESGGGLVQAGGSLRLSCAASGSTFIVNAMRWYRQAPGKERELVAAIDWSGGSTYYADSVKGRFTISRDNAKNTVYLQMNSLKPEDTAVYYCAAQYEIPAGNSTYDYWGQGTQVTVSS,low polyreactivity
16,QVQLVESGGGLVQAGGSLRLSCAASGSTFIVYAMGWYRQATGKERELVAAISLDGGSTYYADSVKGRFTISRDNAKNTVYLQMNSLKPEDTAVYYCNADYYANSITYDSWGQGTQVTVSS,low polyreactivity
17,QVQLVESGGGLVQAGGSLRLSCAASGSTFIWNAMGWYRQAPRKERELVATITYSGGSTYYADSVKGRFTISRDNAKNTVYLQMNSLKPEDTAVYYCATDATIPKCYTYPGEMDYWGQGTQVTVSS,low polyreactivity
18,QVQLVESGGGLVQAGGSLRLSCAASGSTFIYYTMGWYRQAPGKERELVAAISWRGGSTYYADSVKGRFTIARDNAKNTVYLQMNSLKPEDTAVYYCATGYLYFTSYRYNYWGQGTQVTVSS,low polyreactivity
19,QVQLVESGGGLVQAGGSLRLSCAASGSTFKGTAMGWYRQAPGNERELVAAINRSGTSTYYAHSVKGRFTISRDNAKNTVYLQMNSLKPEDTAVYYCANKYFGHRFDYWGQGTQVTVSS,high polyreactivity
20,QVQLVESGGGLVQAGGSLRLSCAASGSTFKGYAMGWYRQAPGKERELVAAITWSSGRTYYADSVKGRFTISRDNAKNTVYLQMNSLKPEDTAVYYCAAKSRRTRRSYYWGQGTQVTVSS,high polyreactivity
21,QVQLVESGGGLVQAGGSLRLSCAASGSTFKIYAMGWYRQAPGKERELVAVITSGGRTNYADSGKGRFTISRDNAKNTVYLQMNSLKPEDTAVYYCARGRSIHSSNRLEYWGQGTQVTVSS,high polyreactivity

row,Sequence,polyreactivity (PSR sort gate)
1,QVQLVESGGGLVQAGGSLRLSCAASGSTFKKYVMGWYRQAPGKERELVAAISSTGRTNYADSVKGRFTISRDNAKNTVYLQMNSLKPEDTAVYYCAKRYRKYSLGPPGNDYWGQGTQVTVSS,high polyreactivity
2,QVQLVESGGGLVQAGGSLRLSCAASGSTFKLYAMGWYRPAPGKERELVAAITRSGTRTYYADSVKGRFTISRDNAKNTVYLQMNSLKPEDTAVYYCAADGYRISGYDYWGQGTQVTVSS,high polyreactivity
3,QVQLVESGGGLVQAGGSLRLSCAASGSTFKPNVMGWYRPAPGKERELVAAITSTDDRTYYADSVKGRFTISRDNAKNTVYLQMNSLKPEDTAVYYCNRPYAWYGYIYNYWGQGTQVTVSS,low polyreactivity
4,QVQLVESGGGLVQAGGSLRLSCAASGSTFKQYTMGWYRQAPGKERELVAAISWSGTSTYYADSVKGRFTISRDNAKNTVYLLMNSLKAEDTAVYYCAAVSYVWQYYYWGQGTQVTVSS,high polyreactivity
5,QVQLVESGGGLVQAGGSLRLSCAASGSTFKRNAMGWYRQAPGKERELVAAISFRGGSTYYADSVKGRFTISRDNAKNTVYLQMNSLKPEDTAVYSCAAGIYRIRGGGISFDYWGQGTQVTVSS,high polyreactivity
6,QVQLVESGGGLVQAGGSLRLSCAASGSTFKRYAMGWYRQAPGKDRELVAAIRRGGITNYADSVKGRFTISRDNAKNTVYLQMNSLKPEDTAVYYCAKDGVTYPYSYEYDYWGQGTQVTVSS,low polyreactivity
7,QVQLVESGGGLVQAGGSLRLSCAASGSTFKRYAMGWYRQAPGKERELVAAISSGGTTNYADSVKGRFTISRDNAKNTVYLQMNSLKPEDTAVYYCNRKFRYSSHTNYYYWGQGTQVTVSS,high polyreactivity
8,QVQLVESGGGLVQAGGSLRLSCAASGSTFKRYAMGWYRQAPGKERELVAAITNGDRTNYADSVKGRFTISRDNAKKTVYLQMNSLKPEDTAVYYCAAAYSRYTSRFYYWGQGTQVTVSS,high polyreactivity
9,QVQLVESGGGLVQAGGSLRLSCAASGSTFKRYAMGWYRQAPGKERELVASISSGGSTNYADSVKGRFTISRDNAKNTVYLQMNSLKPEDTAVYYCATYLVTGGGLNVRYDYWGQGTQVTVSS,high polyreactivity
10,QVQLVESGGGLVQAGGSLRLSCAASGSTFKRYAMGWYRQAPGKERELVASISSGGSTNYVDSVKGRFTISRDNAKNTVYLQMNSLKPEDTAVYYCAVSYRSFRYYWERYYSWGQGTQVTVSS,high polyreactivity
11,QVQLVESGGGLVQAGGSLRLSCAASGSTFKRYAMGWYRQAPGKERELVATINSGTSTNYADSVKGRFTISRDNAKNTVYLEMNSLKPEETAVYYCAKSFRRSVGGYGYDYWGQGTQVSVSS,low polyreactivity
12,QVQLVESGGGLVQAGGSLRLSCAASGSTFKRYTMGWYRQAPGKERELVAAISTSSGSTYFADSVKGRFTISRDNAKISVYLQMNSLKPEDSAVYYCDAVRLRQTYPKYNYWGQGTQVTVSS,high polyreactivity
13,QVQLVESGGGLVQAGGSLRLSCAASGSTFKTYAMGWYRQAPGKEREFVASISTSGGSTYYADSVKGRFTISRDNAKNTVYLQMNSLKPEDTAVYYCAAKGRSYGVTRMYYWGQGTQVTVSS,high polyreactivity
14,QVQLVESGGGLVQAGGSLRLSCAASGSTFKTYAMGWYRQAPGKESELVAAISWSGGSTYYADSVKGRFTISRDNAKNTVYLQMNSLKPEDTAVYYCNAGWGYPSPWFIGEYWGQGTQVTVSS,low polyreactivity
15,QVQLVESGGGLVQAGGSLRLSCAASGSTFKVYAMRWYRQAPGKERELVARISTRVGSTYYADSVKGRFTISRDNAKNSVYLQMNSLKAEDSAVYYCNARWWDPPYYYWGQGTQVTVSS,high polyreactivity
16,QVQLVESGGGLVQAGGSLRLSCAASGSTFKVYTMGWYRQAPGKERELVAAITGGGGSTYYADSVKGRFTISRDNAKNTVSLQMNSLKPEDTAVYYCAAQKRGPGYPYYYWGQGTQVTVSS,high polyreactivity
17,QVQLVESGGGLVQAGGSLRLSCAASGSTFKWYAMGWYRQAPGKERELVAAITVSGDSTYYADSVKGRFTISRDNAKNTVYLQMNSLKPEDTAVYYCAKDYQGITPYDYWGQGTQVTVSS,low polyreactivity
18,QVQLVESGGGLVQAGGSLRLSCAASGSTFKWYGRGWSRQAPGKDRELVATINYSSSTTYYADSVKGRFTISRDNAKNTVYLQMNSLKPEDTAVYYCAKGVYWGTKSTYDYWGQGTQVTVSS,high polyreactivity
19,QVQLVESGGGLVQAGGSLRLSCAASGSTFKYNAMGWYRQAPGKERELDAAISSSGGSTSYADSVKGRFTISRDNAKNTVYLQMNSLKPEDTAVYYCAADSYPAYLGFVGFDYWGQGSQVTVSS,low polyreactivity
20,QVQLVESGGGLVQAGGSLRLSCAASGSTFKYNAMGWYRQAPGKERELVASISRSGGSTYYADSVKGRFTISRDNAKNTVYLQMNSLKPEDTAVYYCNVRRFVHYEYWGHGTQVTVSS,high polyreactivity
